Test results as given in the supplement of paper PMC5998384.

Assays:
HeLa Kyoto [1] = assay: melting temperature (median over replicates), in situ; higher = more thermally stable
HeLa Kyoto [2] = assay: solubility change mitosis vs G1/S (difference of NP-40 vs SDS log2 ratios) (log2 ratio difference); higher = more soluble in mitosis
HeLa Kyoto [3] = assay: thermal stability score vs G1/S (z-score of summed log2 fold changes over temperatures); higher = more thermally stable than in G1/S
HeLa Kyoto [4] = assay: solubility in G1/S (NP-40 vs SDS abundance) (log2 ratio); higher = more soluble; settings: cell cycle stage: G1/S
[5] = cell cycle stage: early G1 (4.5 h after nocodazole release)
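Throughout, for melting temperature (median over replicates), in situ: HeLa Kyoto cells synchronized by double thymidine or nocodazole block, proteins quantified by TMT10plex mass spectrometry, three independent biological replicates.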
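Throughout, for solubility change mitosis vs G1/S (difference of NP-40 vs SDS log2 ratios): synchronized HeLa Kyoto cells (double thymidine block for G1/S, nocodazole release for mitosis), protein amounts in NP-40 versus SDS lysates quantified by mass spectrometry, three biological replicates.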
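Throughout, for solubility in G1/S (NP-40 vs SDS abundance): HeLa Kyoto cells arrested at G1/S by double thymidine block, proteins quantified by TMT10plex mass spectrometry in mild NP-40 versus SDS extracts, three biological replicates.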
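Throughout, for thermal stability score vs G1/S (z-score of summed log2 fold changes over temperatures): synchronized HeLa Kyoto cells, proteins quantified by TMT10plex mass spectrometry, three biological replicates, mitosis taken 0.5 h after nocodazole release, G1/S directly after double thymidine block.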

Substance	melting temperature (HeLa Kyoto [1]; cell cycle stage: G1/S)	melting temperature (HeLa Kyoto [1]; cell cycle stage: mitosis)	solubility change mitosis (log2) (HeLa Kyoto [2])	thermal stability score (HeLa Kyoto [3]; [5])	thermal stability score (HeLa Kyoto [3]; cell cycle stage: mitosis)	solubility in G1/S (log2) (HeLa Kyoto [4])
MQTPEVPAERSPRRRSISGTSTSEKPNSMDTANTSPFKVPGFFSKRLKGSIKRTKSQSKLDRNTSFRLPSLRSTDDRSRGLPKLKESRSHESLLSPCSTVECLDLGRGEPVSVKPLHSSILGQDFCFEVTYLSGSKCFSCNSASERDKWMENLRRTVQPNKDNCRRAENVLRLWIIEAKDLAPKKKYFCELCLDDTLFARTTSKTKADNIFWGEHFEFFSLPPLHSITVHIYKDVEKKKKKDKNNYVGLVNIPTASVTGRQFVEKWYPVSTPTPNKGKTGGPSIRIKSRFQTITILPMEQYKEFAEFVTSNYTMLCSVLEPVISVRNKEELACALVHILQSTGRAKDFLTDLVMSEVDRCGEHDVLIFRENTIATKSIEEYLKLVGQQYLHDALGEFIKALYESDENCEVDPSKCSSSELIDHQSNLKMCCELAFCKIINSYCVFPRELKEVFASWKQQCLNRGKQDISERLISASLFLRFLCPAIMSPSLFNLMQEYPDDRTSRTLTLIAKVIQNLANFAKFGNKEEYMAFMNDFLEHEWGGMKRFLLEISNPDTISNTPGFDGYIDLGRELSVLHSLLWEVVSQLDKGENSFLQATVAKLGPLPRVLADITKSLTNPTPIQQQLRRFTEHNSSPNVSGSLSSGLQKIFEDPTDSDLHKLKSPSQDNTDSYFRGKTLLLVQQASSQSMTYSEKDERESSLPNGRSVSLMDLQDTHAAQVEHASVMLDVPIRLTGSQLSITQVASIKQLRETQSTPQSAPQVRRPLHPALNQPGGLQPLSFQNPVYHLNNPIPAMPKASIDSSLENLSTASSRSQSNSEDFKLSGPSNSSMEDFTKRSTQSEDFSRRHTVPDRHIPLALPRQNSTGQAQIRKVDQGGLGARAKAPPSLPHSASLRSTGSMSVVSAALVAEPVQNGSRSRQQSSSSRESPVPKVRAIQRQQTQQVQSPVDSATMSPVERTAAWVLNNGQYEEDVEETEQNLDEAKHAEKYEQEITKLKERLRVSSRRLEEYERRLLVQEQQMQKLLLEYKARLEDSEERLRRQQEEKDSQMKSIISRLMAVEEELKKDHAEMQAVIDAKQKIIDAQEKRIVSLDSANTRLMSALTQVKERYSMQVRNGISPTNPTKLSITENGEFKNSSC [RASAL2]	49 °C	49.4 °C	-0.0989	1.04	2.25	0.0337
MKKFSRMPKSEGGSGGGAAGGGAGGAGAGAGCGSGGSSVGVRVFAVGRHQVTLEESLAEGGFSTVFLVRTHGGIRCALKRMYVNNMPDLNVCKREITIMKELSGHKNIVGYLDCAVNSISDNVWEVLILMEYCRAGQVVNQMNKKLQTGFTEPEVLQIFCDTCEAVARLHQCKTPIIHRDLKVENILLNDGGNYVLCDFGSATNKFLNPQKDGVNVVEEEIKKYTTLSYRAPEMINLYGGKPITTKADIWALGCLLYKLCFFTLPFGESQVAICDGNFTIPDNSRYSRNIHCLIRFMLEPDPEHRPDIFQVSYFAFKFAKKDCPVSNINNSSIPSALPEPMTASEAAARKSQIKARITDTIGPTETSIAPRQRPKANSATTATPSVLTIQSSATPVKVLAPGEFGNHRPKGALRPGNGPEILLGQGPPQQPPQQHRVLQQLQQGDWRLQQLHLQHRHPHQQQQQQQQQQQQQQQQQQQQQQQQQQQHHHHHHHHLLQDAYMQQYQHATQQQQMLQQQFLMHSVYQPQPSASQYPTMMPQYQQAFFQQQMLAQHQPSQQQASPEYLTSPQEFSPALVSYTSSLPAQVGTIMDSSYSANRSVADKEAIANFTNQKNISNPPDMSGWNPFGEDNFSKLTEEELLDREFDLLRSNRLEERASSDKNVDSLSAPHNHPPEDPFGSVPFISHSGSPEKKAEHSSINQENGTANPIKNGKTSPASKDQRTGKKTSVQGQVQKGNDESESDFESDPPSPKSSEEEEQDDEEVLQGEQGDFNDDDTEPENLGHRPLLMDSEDEEEEEKHSSDSDYEQAKAKYSDMSSVYRDRSGSGPTQDLNTILLTSAQLSSDVAVETPKQEFDVFGAVPFFAVRAQQPQQEKNEKNLPQHRFPAAGLEQEEFDVFTKAPFSKKVNVQECHAVGPEAHTIPGYPKSVDVFGSTPFQPFLTSTSKSESNEDLFGLVPFDEITGSQQQKVKQRSLQKLSSRQRRTKQDMSKSNGKRHHGTPTSTKKTLKPTYRTPERARRHKKVGRRDSQSSNEFLTISDSKENISVALTDGKDRGNVLQPEESLLDPFGAKPFHSPDLSWHPPHQGLSDIRADHNTVLPGRPRQNSLHGSFHSADVLKMDDFGAVPFTELVVQSITPHQSQQSQPVELDPFGAAPFPSKQ [BMP2K]	50.5 °C	51.1 °C	-0.0153	0.793	0.398	-0.292
MAAPMEVAVCTDSAAPMWSCIVWELHSGANLLTYRGGQAGPRGLALLNGEYLLAAQLGKNYISAWELQRKDQLQQKIMCPGPVTCLTASPNGLYVLAGVAESIHLWEVSTGNLLVILSRHYQDVSCLQFTGDSSHFISGGKDCLVLVWSLCSVLQADPSRIPAPRHVWSHHALPITDLHCGFGGPLARVATSSLDQTVKLWEVSSGELLLSVLFDVSIMAVTMDLAEHHMFCGGSEGSIFQVDLFTWPGQRERSFHPEQDAGKVFKGHRNQVTCLSVSTDGSVLLSGSHDETVRLWDVQSKQCIRTVALKGPVTNAAILLAPVSMLSSDFRPSLPLPHFNKHLLGAEHGDEPRHGGLTLRLGLHQQGSEPSYLDRTEQLQAVLCSTMEKSVLGGQDQLRVRVTELEDEVRNLRKINRDLFDFSTRFITRPAK [WDR18]	56.6 °C	54.1 °C	0.571	-1.8	-5.26	-1.23
MSDGDYDYLIKFLALGDSGVGKTSVLYQYTDGKFNSKFITTVGIDFREKRVVYRASGPDGATGRGQRIHLQLWDTAGQERFRSLTTAFFRDAMGFLLLFDLTNEQSFLNVRNWISQLQMHAYCENPDIVLCGNKSDLEDQRVVKEEEAIALAEKYGIPYFETSAANGTNISQAIEMLLDLIMKRMERCVDKSWIPEGVVRSNGHASTDQLSEEKEKGACGC [RAB27A]	52.7 °C	53.9 °C	-0.0891	2.41	2.1	0.222
MPRRKKKVKEVSESRNLEKKDVETTSSVSVKRKRRLEDAFIVISDSDGEEPKEENGLQKTKTKQSNRAKCLAKRKIAQMTEEEQFALALKMSEQEAREVNSQEEEEEELLRKAIAESLNSCRPSDASATRSRPLATGPSSQSHQEKTTDSGLTEGIWQLVPPSLFKGSHISQGNEAEEREEPWDHTEKTEEEPVSGSSGSWDQSSQPVFENVNVKSFDRCTGHSAEHTQCGKPQESTGRGSAFLKAVQGSGDTSRHCLPTLADAKGLQDTGGTVNYFWGIPFCPDGVDPNQYTKVILCQLEVYQKSLKMAQRQLLNKKGFGEPVLPRPPSLIQNECGQGEQASEKNECISEDMGDEDKEERQESRASDWHSKTKDFQESSIKSLKEKLLLEEEPTTSHGQSSQGIVEETSEEGNSVPASQSVAALTSKRSLVLMPESSAEEITVCPETQLSSSETFDLEREVSPGSRDILDGVRIIMADKEVGNKEDAEKEVAISTFSSSNQVSCPLCDQCFPPTKIERHAMYCNGLMEEDTVLTRRQKEAKTKSDSGTAAQTSLDIDKNEKCYLCKSLVPFREYQCHVDSCLQLAKADQGDGPEGSGRACSTVEGKWQQRLKNPKEKGHSEGRLLSFLEQSEHKTSDADIKSSETGAFRVPSPGMEEAGCSREMQSSFTRRDLNESPVKSFVSISEATDCLVDFKKQVTVQPGSRTRTKAGRGRRRKF [UIMC1]	51.5 °C	52.5 °C	0.107	1.12	1.21	-0.219
MHFSIPETESRSGDSGGSAYVAYNIHVNGVLHCRVRYSQLLGLHEQLRKEYGANVLPAFPPKKLFSLTPAEVEQRREQLEKYMQAVRQDPLLGSSETFNSFLRRAQQETQQVPTEEVSLEVLLSNGQKVLVNVLTSDQTEDVLEAVAAKLDLPDDLIGYFSLFLVREKEDGAFSFVRKLQEFELPYVSVTSLRSQEYKIVLRKSYWDSAYDDDVMENRVGLNLLYAQTVSDIERGWILVTKEQHRQLKSLQEKVSKKEFLRLAQTLRHYGYLRFDACVADFPEKDCPVVVSAGNSELSLQLRLPGQQLREGSFRVTRMRCWRVTSSVPLPSGSTSSPGRGRGEVRLELAFEYLMSKDRLQWVTITSPQAIMMSICLQSMVDELMVKKSGGSIRKMLRRRVGGTLRRSDSQQAVKSPPLLESPDATRESMVKLSSKLSAVSLRGIGSPSTDASASDVHGNFAFEGIGDEDL [SNX17]	50.9 °C	51.4 °C	-0.263	1.32	0.59	0.103
TACC2	54.3 °C	53.8 °C	-0.0921	-1.3	1.83	0.219
MSAIPAEESDQLLIRPLGAGQEVGRSCIILEFKGRKIMLDCGIHPGLEGMDALPYIDLIDPAEIDLLLISHFHLDHCGALPWFLQKTSFKGRTFMTHATKAIYRWLLSDYVKVSNISADDMLYTETDLEESMDKIETINFHEVKEVAGIKFWCYHAGHVLGAAMFMIEIAGVKLLYTGDFSRQEDRHLMAAEIPNIKPDILIIESTYGTHIHEKREEREARFCNTVHDIVNRGGRGLIPVFALGRAQELLLILDEYWQNHPELHDIPIYYASSLAKKCMAVYQTYVNAMNDKIRKQININNPFVFKHISNLKSMDHFDDIGPSVVMASPGMMQSGLSRELFESWCTDKRNGVIIAGYCVEGTLAKHIMSEPEEITTMSGQKLPLKMSVDYISFSAHTDYQQTSEFIRALKPPHVILVHGEQNEMARLKAALIREYEDNDEVHIEVHNPRNTEAVTLNFRGEKLAKVMGFLADKKPEQGQRVSGILVKRNFNYHILSPCDLSNYTDLAMSTVKQTQAIPYTGPFNLLCYQLQKLTGDVEELEIQEKPALKVFKNITVIQEPGMVVLEWLANPSNDMYADTVTTVILEVQSNPKIRKGAVQKVSKKLEMHVYSKRLEIMLQDIFGEDCVSVKDDSILSVTVDGKTANLNLETRTVECEEGSEDDESLREMVELAAQRLYEALTPVH [CPSF3]	51.2 °C	50.5 °C	-0.00173	0.918	1.38	-0.183
MWIQVRTMDGRQTHTVDSLSRLTKVEELRRKIQELFHVEPGLQRLFYRGKQMEDGHTLFDYEVRLNDTIQLLVRQSLVLPHSTKERDSELSDTDSGCCLGQSESDKSSTHGEAAAETDSRPADEDMWDETELGLYKVNEYVDARDTNMGAWFEAQVVRVTRKAPSRDEPCSSTSRPALEEDVIYHVKYDDYPENGVVQMNSRDVRARARTIIKWQDLEVGQVVMLNYNPDNPKERGFWYDAEISRKRETRTARELYANVVLGDDSLNDCRIIFVDEVFKIERPGEGSPMVDNPMRRKSGPSCKHCKDDVNRLCRVCACHLCGGRQDPDKQLMCDECDMAFHIYCLDPPLSSVPSEDEWYCPECRNDASEVVLAGERLRESKKKAKMASATSSSQRDWGKGMACVGRTKECTIVPSNHYGPIPGIPVGTMWRFRVQVSESGVHRPHVAGIHGRSNDGAYSLVLAGGYEDDVDHGNFFTYTGSGGRDLSGNKRTAEQSCDQKLTNTNRALALNCFAPINDQEGAEAKDWRSGKPVRVVRNVKGGKNSKYAPAEGNRYDGIYKVVKYWPEKGKSGFLVWRYLLRRDDDEPGPWTKEGKDRIKKLGLTMQYPEGYLEALANREREKENSKREEEEQQEGGFASPRTGKGKWKRKSAGGGPSRAGSPRRTSKKTKVEPYSLTAQQSSLIREDKSNAKLWNEVLASLKDRPASGSPFQLFLSKVEETFQCICCQELVFRPITTVCQHNVCKDCLDRSFRAQVFSCPACRYDLGRSYAMQVNQPLQTVLNQLFPGYGNGR [UHRF1]	45.8 °C	48.3 °C	0.3	4.54	8.25	-0.563
